Source: patent US9719113B2 (priority 2014, dated 2017)

Experiments:
QH4 strain = settings: SA added to cell cultures at 0-1000 mg/L; QH4 cells
Source text: All data points are reported as mean±s.d. from three independent experiments. […] All data points are reported as mean±s.d. from two independent experiments.

[1] = In vitro SMO enzyme assay; type: biochemical, P. putida DOT-T1E; settings: purified His-tagged enzyme 0.97 nM
Procedure: (A) Kinetic parameters of the SMO. The Km and Vmax values were estimated with OriginPro8 through non-linear regression of the Michaelis-Menten equation. The protein concentration [E] of the SMO in the reaction systems was 0.97 nM. The kcat value was calculated according to the formula kcat=Vmax/[E]. […] (B) Conversion of SA to MA using the wild type E. coli strain carrying pZE-NC. […] Error bars are defined as s.d.
To express and purify the enzyme, E. coli BL21 Star (DE3) was transformed with the expression plasmid pET-NahG. A fresh transformant was inoculated in 3 ml LB medium containing 100 μg/ml of ampicillin and grown aerobically at 37° C. Overnight cultures were inoculated into 50 ml fresh LB medium and left to grow at 37° C. till OD600 reached 0.6 and then induced at 30° C. with 0.5 mM IPTG for another 3 h. Cells were then harvested and lysed by French Press. The recombinant protein with an N-terminal multi-histidine tag was purified using His-Spin protein miniprep kit (ZYMO […]). The enzyme concentration was measured using BCA kit (Pierce Chemicals). The standard enzyme assay was performed by making an assay mixture containing 500 μM NADH, 10 μM FAD, 0.97 nM purified enzyme, and SA as the substrate. The final volume was adjusted to 1 ml with Kpi buffer (20 mM, pH=7.0). […] The reaction rates were calculated by measuring the formation of catechol via HPLC. […]

[2] = Screening SMOs in vivo (conversion of SA to catechol by whole cells); type: cell-based; settings: E. coli BW25113 carrying pZE12-luc expression vector, 2 mM SA, 37° C., catechol formation rate
Procedure: To evaluate the activity of enzymes converting SA to catechol, E. coli BW25113 was transformed with the expression vectors pZE-ppbenABCD, pZE-paantABC, pZE-pfantABC and pZE-NahG, separately. The resultant transformants were inoculated in 3 ml LB liquid medium containing 100 μg/ml of ampicillin and grown aerobically at 37° C. The overnight cultures were inoculated into 20 ml fresh LB medium and left to grow at 37° C. till OD600 reached 0.6 and then induced with 0.25 mM of IPTG at 37° C. for additional 3 h. Then the cells were harvested, and re-suspended in M9Y medium (OD600=2.1-2.7). SA was added into the cell suspension to a final concentration of 2 mM. The flasks were incubated with shaking at 37° C. for 10 min for the SMO encoded by nahG^opt and 1 h for ppBenABCD, paAntABC, and pfAntABC. Samples were taken by removing cell pellets and the product (catechol) concentrations were measured with HPLC. The in vivo activity was expressed as μM/min/OD.
Following the reconstitution and optimization of an SA biosynthetic pathway, our subsequent effort was focused on constructing the SA degradation pathway. SMO catalyzes the first enzymatic step of SA degradation, and thus it is of great importance to have an efficient SMO available for the pathway assembly. […] A putative SMO (encoded by nahG) was identified from the genome of P. putida DOT-T1E. […]

| Molecule | SA concentration that completely inhibited the cell proliferation (QH4 strain) [mg/L] | Km ([1]; SA 0 to 100 μM, 500 μM NADH, 10 μM FAD, pH 7.0, 37° C.) [µM] | kcat ([1]; substrate SA, kcat=Vmax/[E]) [s⁻¹] | In vivo activity [2] [μM/min/OD] | In vivo activity ([2]; listed as SMO encoded by nahG^opt) [μM/min/OD] |
| --- | --- | --- | --- | --- | --- |
| O=C(O)c1ccccc1O [SA, salicylic acid] | 1000 | – | – | – | – |
| nahG^opt: salicylate 1-monoxygenase (SMO) from P. putida DOT-T1E, encoded by codon-optimized gene nahG^opt (protein, listed as Escherichia coli) MQNSTSALNVSIIGGGIAGVALALDLCRHAHLNVQLFEAAPAFGEVGAGVSFGANAVRAIAGLGIAEPYGKIADSNPAPWQDIWFEWRNGRDAKYLGCSVAEGVGQSSVHRADFLDALASQLPDGIAQFGKRAQRVEQDGEQVRVTFTDGSEHRCDLLIGADGIKSSIRDHVLQGLNQPLASPRFSGTCAYRGLIDSQQLREAYRARGVDEHLIDVPQMYLGLDGHILTFPVKQGRLINVVAFISDRSQPNPVWPSDTPWVRNATQAEMLAAFEGWDDAAQVLLECIPTPSLWALHDLAELPGYVHGRVGLIGDAAHAMLPHQGAGAGQGLEDAWLLARLLEDPKVLDKRPQAVLDAYDAVRRPRACRVQRTSFEAGELYEFRDPAVLADEERLGKVLAERFDWLWNHDMQEDLLQARELLGLRAQAA | – | 4.37 | 96.56 | 54.78 ± 1.65 | 54.78 |
